Laboratory results published in patent US20240182536A1 (MURAL ONCOLOGY, published 2024).
Like-named read-outs stand apart in the source and are kept apart here.

Legend:
[1] = target: T1, human IL-18 binding protein (human, UniProt O95998 31-194); test: cell-based or functional assay
T1 sequence (looked up): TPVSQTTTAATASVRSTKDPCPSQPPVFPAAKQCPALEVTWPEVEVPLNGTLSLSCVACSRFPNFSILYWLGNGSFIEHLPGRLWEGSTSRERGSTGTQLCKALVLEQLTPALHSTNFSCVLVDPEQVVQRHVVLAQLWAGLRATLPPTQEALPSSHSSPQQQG

[2] = target: T2, IL-18 receptors on HEK-Blue IL-18 reporter cells (UniProt Q13478 19-541; O95256 20-599, limits assumed); test: cell-based or functional assay
T2 sequence (looked up) 1: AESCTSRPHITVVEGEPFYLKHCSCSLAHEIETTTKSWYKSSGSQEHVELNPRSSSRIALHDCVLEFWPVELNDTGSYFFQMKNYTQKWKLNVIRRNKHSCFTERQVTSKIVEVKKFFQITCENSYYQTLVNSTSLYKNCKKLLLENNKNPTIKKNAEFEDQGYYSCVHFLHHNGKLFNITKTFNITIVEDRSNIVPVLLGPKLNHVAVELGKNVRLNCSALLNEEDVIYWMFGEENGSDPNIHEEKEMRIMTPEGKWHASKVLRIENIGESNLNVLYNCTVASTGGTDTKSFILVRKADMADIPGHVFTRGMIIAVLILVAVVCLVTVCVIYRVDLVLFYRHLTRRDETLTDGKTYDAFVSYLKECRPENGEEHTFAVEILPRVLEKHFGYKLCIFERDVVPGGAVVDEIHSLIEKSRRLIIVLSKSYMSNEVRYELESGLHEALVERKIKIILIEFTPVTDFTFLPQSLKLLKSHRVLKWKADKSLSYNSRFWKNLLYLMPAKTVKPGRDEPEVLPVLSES
T2 sequence (looked up) 2: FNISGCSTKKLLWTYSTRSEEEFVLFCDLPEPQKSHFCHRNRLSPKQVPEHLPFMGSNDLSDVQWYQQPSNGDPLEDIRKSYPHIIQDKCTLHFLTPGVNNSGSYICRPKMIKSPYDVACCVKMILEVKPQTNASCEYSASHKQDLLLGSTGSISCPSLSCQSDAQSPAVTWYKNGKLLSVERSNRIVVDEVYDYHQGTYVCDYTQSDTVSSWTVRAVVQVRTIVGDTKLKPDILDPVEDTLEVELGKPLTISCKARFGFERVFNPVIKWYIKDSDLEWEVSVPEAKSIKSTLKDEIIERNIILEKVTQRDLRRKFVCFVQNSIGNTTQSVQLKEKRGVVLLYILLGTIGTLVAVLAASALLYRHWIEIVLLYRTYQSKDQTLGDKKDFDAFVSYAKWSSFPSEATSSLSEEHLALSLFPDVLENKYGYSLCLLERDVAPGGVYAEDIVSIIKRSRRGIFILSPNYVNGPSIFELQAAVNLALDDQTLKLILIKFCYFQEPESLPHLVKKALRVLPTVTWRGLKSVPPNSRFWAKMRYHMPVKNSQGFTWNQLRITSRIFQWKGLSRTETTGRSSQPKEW

[3] = target: T1, human IL-18 binding protein; test: cell-based or functional assay; remark: listed apart in the source
[4] = target: T2, IL-18 receptors on HEK-Blue IL-18 …; test: cell-based or functional assay; remark: listed apart in the source
[5] = target: T3, human IL-18 binding protein (IL-18BP) (human, UniProt O95998 31-194); test: Octet BLI
T3 construct: also called hu IL-18BP; hIL18BP
T3 sequence (looked up): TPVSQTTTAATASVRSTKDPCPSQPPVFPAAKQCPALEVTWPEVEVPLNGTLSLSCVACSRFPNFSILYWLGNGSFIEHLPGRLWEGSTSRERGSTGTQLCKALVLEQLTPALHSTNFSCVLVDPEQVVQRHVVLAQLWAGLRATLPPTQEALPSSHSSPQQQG
Description: Octet 96red instrument was used to determine affinities of IL18 proteins to BP or receptors. 5-10 ug/ml analyte proteins were used for loading on Sartorius tips (AHC or SA). […] 120-180 s loading, 200 s association and 800 s dissociation were used for kinetics. 3-7 data points were used to calculate affinities.
Select G3/K53-substitution containing IL-18 variants and select G3/K53/N91-substitution containing TL-18 variants were tested for activity in the HEK-blue activity assay and for binding affinity to IL-18BP. As shown in the data of Table 15 and Table 16 below, each variant had similar or better activity than WT IL-18, and retained substantial activity in the presence of IL-18BP.

[6] = target: T3, human IL-18 binding protein (IL-18BP); test: cell-based or functional assay
[7] = target: T4, IL-18 receptors on HEK-Blue IL-18 reporter cells (InvivoGen) (UniProt Q13478 19-541; O95256 20-599); test: cell-based or functional assay
T4 sequence (looked up) 1: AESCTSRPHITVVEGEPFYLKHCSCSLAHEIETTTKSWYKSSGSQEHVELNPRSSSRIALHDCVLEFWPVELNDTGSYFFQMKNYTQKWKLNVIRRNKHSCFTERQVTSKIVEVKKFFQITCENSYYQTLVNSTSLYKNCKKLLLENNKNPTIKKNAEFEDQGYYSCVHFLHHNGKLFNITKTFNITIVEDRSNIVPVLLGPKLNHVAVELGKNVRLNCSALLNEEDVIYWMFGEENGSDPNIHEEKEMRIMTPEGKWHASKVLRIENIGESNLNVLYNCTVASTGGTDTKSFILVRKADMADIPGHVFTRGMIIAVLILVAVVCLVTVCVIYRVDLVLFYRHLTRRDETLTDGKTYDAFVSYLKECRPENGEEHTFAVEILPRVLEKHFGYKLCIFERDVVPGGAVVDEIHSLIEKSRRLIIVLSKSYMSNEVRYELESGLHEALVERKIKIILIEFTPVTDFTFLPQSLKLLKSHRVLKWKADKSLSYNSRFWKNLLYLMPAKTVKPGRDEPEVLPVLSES
T4 sequence (looked up) 2: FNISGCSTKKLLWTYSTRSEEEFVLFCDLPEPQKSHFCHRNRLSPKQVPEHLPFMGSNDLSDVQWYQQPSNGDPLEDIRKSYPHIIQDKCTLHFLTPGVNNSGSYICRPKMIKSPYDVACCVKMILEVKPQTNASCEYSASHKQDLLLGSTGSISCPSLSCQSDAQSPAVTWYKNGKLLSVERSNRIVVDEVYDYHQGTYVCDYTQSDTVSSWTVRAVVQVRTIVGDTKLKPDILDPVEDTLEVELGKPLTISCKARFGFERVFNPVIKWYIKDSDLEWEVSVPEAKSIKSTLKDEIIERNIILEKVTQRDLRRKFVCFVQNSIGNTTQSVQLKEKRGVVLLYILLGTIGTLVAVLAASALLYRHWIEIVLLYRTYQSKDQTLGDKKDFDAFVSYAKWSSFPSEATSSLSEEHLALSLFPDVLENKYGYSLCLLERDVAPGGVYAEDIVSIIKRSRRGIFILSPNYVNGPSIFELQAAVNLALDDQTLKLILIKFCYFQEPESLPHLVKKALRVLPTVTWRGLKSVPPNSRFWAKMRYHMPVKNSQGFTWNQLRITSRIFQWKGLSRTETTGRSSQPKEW

B1: human IL-18 variant G3V/E6K/K53A (ligand)
chain: YFVKLKSKLSVIRNLNDQVLFIDQGNRPLFEDMTDSDMRDNAPRTIFIISMYADSQPRGMAVTISVKSEKISTLSSENKIISFKEMNPPDNIKDTKSDIIFFQRSVPGHDNKMQFESSSYEGYFLASEKERDLFKLILKKEDELGDRSIMFTVQNED
For B1, the “HEK-blue EC50 (pM) + 300 nM BP” value [1] was 1.68 pM, the “HEK-blue EC50 (pM) - BP” value [2] was 0.038 pM and the “HEK-blue EC50 (pM) + 1000 nM BP” value [3] was 1.26 pM. The “HEK-blue EC50 (pM) - BP” value [4] was 0.05 pM.

B2: IL-18 variant G3F, N91E, K53S (ligand)
chain: YFFKLESKLSVIRNLNDQVLFIDQGNRPLFEDMTDSDMRDNAPRTIFIISMYSDSQPRGMAVTISVKSEKISTLSSENKIISFKEMNPPDEIKDTKSDIIFFQRSVPGHDNKMQFESSSYEGYFLASEKERDLFKLILKKEDELGDRSIMFTVQNED
notes: also called G3F/K53S/N91E
B2 showed a Kd [5] of 9.1 nM, a koff [5] of 0.00195 s⁻¹ and a kon [5] of 213000 M⁻¹ s⁻¹. The “HEK-Blue Ec50 (pM), +IL-18BP (50 nM)” value [6] was 10.7 pM and the “HEK-Blue Ec50 (pM), -IL-18BP” value [7] was 2.55 pM.

B3: IL-18 variant G3R, N91M, K53A (ligand)
chain: YFRKLESKLSVIRNLNDQVLFIDQGNRPLFEDMTDSDMRDNAPRTIFIISMYADSQPRGMAVTISVKSEKISTLSSENKIISFKEMNPPDMIKDTKSDIIFFQRSVPGHDNKMQFESSSYEGYFLASEKERDLFKLILKKEDELGDRSIMFTVQNED
notes: also called G3R/K53A/N91M
B3 showed a Kd [5] of 1.5 nM, a koff [5] of 0.00031 s⁻¹ and a kon [5] of 208000 M⁻¹ s⁻¹. For the same binder, the “HEK-Blue Ec50 (pM), +IL-18BP (50 nM)” value [6] was 1.67 pM and the “HEK-Blue Ec50 (pM), -IL-18BP” value [7] was 0.06 pM.

B4: IL-18 variant G3K, N91I, K53S (ligand)
chain: YFKKLESKLSVIRNLNDQVLFIDQGNRPLFEDMTDSDMRDNAPRTIFIISMYSDSQPRGMAVTISVKSEKISTLSSENKIISFKEMNPPDIIKDTKSDIIFFQRSVPGHDNKMQFESSSYEGYFLASEKERDLFKLILKKEDELGDRSIMFTVQNED
B4 was tested, and the Kd [5] was 1.9 nM, the koff [5] was 0.000406 s⁻¹ and the kon [5] was 218000 M⁻¹ s⁻¹. The “HEK-Blue Ec50 (pM), +IL-18BP (50 nM)” value [6] was 7.05 pM and the “HEK-Blue Ec50 (pM), -IL-18BP” value [7] was 0.2 pM.

B5: IL-18 variant G3R, N91A, K53S (ligand)
chain: YFRKLESKLSVIRNLNDQVLFIDQGNRPLFEDMTDSDMRDNAPRTIFIISMYSDSQPRGMAVTISVKSEKISTLSSENKIISFKEMNPPDAIKDTKSDIIFFQRSVPGHDNKMQFESSSYEGYFLASEKERDLFKLILKKEDELGDRSIMFTVQNED
notes: also called G3R/K53S/N91A
B5 gave a Kd [5] of 3.4 nM, a koff [5] of 0.000728 s⁻¹ and a kon [5] of 213000 M⁻¹ s⁻¹. The “HEK-Blue Ec50 (pM), +IL-18BP (50 nM)” value [6] was 2.27 pM and the “HEK-Blue Ec50 (pM), -IL-18BP” value [7] was 0.25 pM.

B6: IL-18 variant G3R, N91S, K53A (ligand)
chain: YFRKLESKLSVIRNLNDQVLFIDQGNRPLFEDMTDSDMRDNAPRTIFIISMYADSQPRGMAVTISVKSEKISTLSSENKIISFKEMNPPDSIKDTKSDIIFFQRSVPGHDNKMQFESSSYEGYFLASEKERDLFKLILKKEDELGDRSIMFTVQNED
B6 was tested, and the Kd [5] was 0.9 nM, the koff [5] was 0.000162 s⁻¹ and the kon [5] was 191000 M⁻¹ s⁻¹. For the same binder, the “HEK-Blue Ec50 (pM), +IL-18BP (50 nM)” value [6] was 2.8 pM and the “HEK-Blue Ec50 (pM), -IL-18BP” value [7] was 0.05 pM.
